Six molecules from US20240009318A1 (BLISS BIOPHARMACEUTICAL HANGZHOU, published 2024) can be followed below.

Numbering of substitutions follows the chain as printed. Names may count otherwise.

B1: BB0500-2g1 (antibody, V domains shown)
VH: QVQLQESGPGLVKPSETLSLTCTVSGGSVSSGDYYWTWIRQSPGKGLEWIGHIYYSGNTNYNPSLKSRLTISIDTSKTQFSLKLSSVTAADTAIYYCVRDRVAGAFDIWGQGTMVTVSS
VL: DIQMTQSPSSLSASVGDRVTITCQASQDISNYLNWYQQKPGKAPKLLIYDASNLETGVPSRFSGSGSGTDFTFTISSLQPEDIATYFCQHFDHLPLAFGGGTKVEIKR
notes: The entries already carry the mutation; also called H3T103 single alanine mutant of panitumumab (VH T103A, VL wt)
B2: BB0500-2n (antibody)
heavy: QVQLQESGPGLVKPSETLSLTCTVSGGSVSSGDYYWTWIRQSPGKGLEWIGHIYYSGNANYNPSLKSRLTISIDTSKTQFSLKLSSVTAADTAIYYCVRDRVTGAFDIWGQGTMVTVSSASTKGPSVFPLAPCSRSTSESTAALGCLVKDYFPEPVTVSWNSGALTSGVHTFPAVLQSSGLYSLSSVVTVPSSNFGTQTYTCNVDHKPSNTKVDKTVEPPKSDCKTHTVECPPCPAPEAAGGPSVFLFPPKPKDTLMISRTPEVTCVVVDVSHEDPEVKFNWYVDGVEVHNAKTKPREEQYNSTYRVVSVLTVLHQDWLNGKEYKCKVSNKALPAPIEKTISKAKGQPREPQVYTLPPSREEMTKNQVSLTCLVKGFYPSDIAVEWESNGQPENNYKTTPPVLDSDGSFFLYSKLTVDKSRWQQGNVFSCSVMHEALHNHYTQKSLSLSPGK
light: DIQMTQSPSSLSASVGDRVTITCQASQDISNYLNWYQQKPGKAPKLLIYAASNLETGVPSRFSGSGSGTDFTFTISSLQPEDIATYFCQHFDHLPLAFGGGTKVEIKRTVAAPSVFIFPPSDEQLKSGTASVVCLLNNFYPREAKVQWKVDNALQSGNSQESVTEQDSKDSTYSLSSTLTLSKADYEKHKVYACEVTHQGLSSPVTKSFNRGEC
notes: Same variable domains as BB0500-2f; the heavy chain constant part differs
B3: BB0500-2f1 (antibody, V domains shown)
VH: B1 VH with T59A, A103T
VL: B1 VL
notes: The entries already carry the mutation; also called H2T59 single alanine mutant of panitumumab (VH T59A, VL wt)
B4: BB0500-2f2 (antibody, V domains shown)
VH: B1 VH with A103T
VL: B1 VL with D50A
notes: The entries already carry the mutation; also called L2D50 single alanine mutant of panitumumab (VH wt, VL D50A)
B5: BB0500-2g (antibody, V domains shown)
VH: B1 VH
VL: B1 VL with Y32A
notes: also called H3T103 / L1Y32 double alanine mutant of panitumumab (VH T103A, VL Y32A)
B6: BB0500-2f (antibody)
heavy: QVQLQESGPGLVKPSETLSLTCTVSGGSVSSGDYYWTWIRQSPGKGLEWIGHIYYSGNANYNPSLKSRLTISIDTSKTQFSLKLSSVTAADTAIYYCVRDRVTGAFDIWGQGTMVTVSSASTKGPSVFPLAPCSRSTSESTAALGCLVKDYFPEPVTVSWNSGALTSGVHTFPAVLQSSGLYSLSSVVTVPSSNFGTQTYTCNVDHKPSNTKVDKTVEPKSDKCTHTVECPPCPAPPVAGPSVFLFPPKPKDTLMISRTPEVTCVVVDVSHEDPEVQFNWYVDGVEVHNAKTKPREEQFNSTFRVVSVLTVVHQDWLNGKEYKCKVSNKGLPAPIEKTISKTKGQPREPQVYTLPPSREEMTKNQVSLTCLVKGFYPSDISVEWESNGQPENNYKTTPPMLDSDGSFFLYSKLTVDKSRWQQGNVFSCSVMHEALHNHYTQKSLSLSPGK
light: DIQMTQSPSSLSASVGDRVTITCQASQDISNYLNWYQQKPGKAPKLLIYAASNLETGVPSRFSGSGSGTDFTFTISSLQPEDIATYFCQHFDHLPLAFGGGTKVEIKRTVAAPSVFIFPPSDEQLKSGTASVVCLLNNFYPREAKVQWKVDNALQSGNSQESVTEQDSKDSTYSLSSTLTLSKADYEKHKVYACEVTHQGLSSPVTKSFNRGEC
notes: Same variable domains as BB0500-2n; the heavy chain constant part differs; also called H2T59 / L2D50 double alanine mutant of panitumumab (VH T59A, VL D50A)

The target of one assay is T1, human EGFR protein (human, UniProt P00533 25-645, limits assumed).
T1 construct: The BLI text says 'human EGFR'; the ELISA text says only 'EGFR'; also called epidermal growth factor receptor; HER1
Briefly: ELISA.
Description: (§1) Mutant antibody samples or control antibodies diluted in 5-fold serial dilutions starting from 10 μg/mL and 8 dilutions total, were coated onto 96-well plates and the plates were incubated at 4° C. overnight. Using HRP-labeled goat anti-human IgG Fc antibody (Sigma, A0170) in 40000 dilution as a detection agent and TMB for colorimetric reaction, the plates read at 450/650 nm for absorbance on Microplate Reader (Molecular Devices, SpectraMax 190) and data analysis was performed using a dose response curve format four parameters logistic model.
Consider B1, for which the “EC50 fold change against wt control” value is around 100 fold.

A further assay has as its target T1, human EGFR protein. Briefly: BLI (Octet RED96e), antibody captured on anti-human Fc (AHC) biosensors, EGFR in solution. (Biolayer interferometry detects binding as a change in optical thickness at a sensor tip.)
Description: Affinity tests are performed in SD buffer (0.02% Tween-20, 0.1% BSA in PBS buffer, pH 7.4) using anti-human Fc Capture (AHC) biosensors. Antibody sample or buffer are dispensed into 96-well microtiter plates. AHC biosensors (Pall FortéBio) are pre-wet with SD buffer to establish a baseline before protein immobilization. The antibody sample is immobilized onto the biosensors. […] Mutant and control antibodies binding is evaluated at various concentrations of EGFR. Data are generated automatically by the Data Acquisition software, and data analysis is performed using FortéBio Data Analysis software.
Take B2: the Kd – broadly, a measure of binding affinity in units of concentration – worked out at 44.1 nM; the koff (commonly the rate constant with which the complex falls apart) was 0.024 s⁻¹; the kon – broadly, the rate constant with which the complex forms – is 543000 M⁻¹ s⁻¹.

For the molecule B3, the Kd is 1.12 nM, the koff was found to be 0.000736 s⁻¹ and the kon turned out to be 655000 M⁻¹ s⁻¹.

As for B4, the Kd was 28.3 nM, the koff is 0.0154 s⁻¹ and the kon turned out to be 543000 M⁻¹ s⁻¹.

Turning to B5, binding was characterised by a dissociation constant (Kd) of 38.8 nM, the koff was determined as 0.0272 s⁻¹ and the on-rate constant (kon) came to 701000 M⁻¹ s⁻¹.

Another assay concerns the target T1, human EGFR protein. Briefly: ELISA of binding to EGFR, 5-fold dilutions from 10 ug/mL, detection with HRP goat anti-human IgG Fc, OD 450/650 nm. In general terms: ELISA stands for enzyme-linked immunosorbent assay.
Description: as §1
In the case of B3, the EC50 (read off the curve) (commonly the concentration giving half of the maximal effect) was around 0.02 µg/mL.

As for B4, the “EC50 (read off the curve)” value was around 0.02 µg/mL.

As to B6, the “EC50 (read off the curve)” value is around 0.02 µg/mL.

As for B5, the 50% effective concentration (EC50 (read off the curve)) was around 0.02 µg/mL.
